{
  "source": "patent US9505841B2",
  "about": "“Use of an anti-Ang2 antibody” (Samsung Electronics Co., Ltd., priority 2013, dated 2016)",
  "key": {"mutant Ang2 protein": {"test_system": "mutant Ang2 protein", "test": "Epitope ELISA with alanine-mutated Ang2 proteins", "assay_type": "binding, human", "conditions": "A449 substituted with alanine", "procedure": "To verify the epitope (or specific binding site) of the anti-Ang2 antibody prepared in Example 2, an ELISA was performed using a recombinant protein where a receptor binding domain (RBD) of Ang2 protein in the form of being tagged with Flag was mutated by artificial means.\nEach well of a 96-well MaxiSorp™ flat-bottom plate (Nunc) was coated with 50 ul (microliter) of 1000 nM antibody. Then, the plate was washed five times with 0.05% (v/v) Tween-20-containing PBS (PBST) and blocked with 1% (v/v) BSA-containing PBS at a room temperature for 2 hours. 250 ng of each mutant Ang2 protein obtained by substituting S417, Q418, P419, N421, 1434, D448, A449, P452, Y460, N467, K468, or F469 residue of Ang2 protein tagged with a FLAG sequence (DYKDDDDK, Sigma) at its N-terminal with alanine was added to each well of the plate, which was then allowed to react at a room temperature for 2 hours. […]\nFinally, 50 ul of TMB substrates (Cell signaling) was added to each well of the plate to induce color development at a room temperature for 3 min. and the reaction was ceased by the addition of 50 ul of Stop solution (Cell signaling) and then, OD450 values were measured on a plate reader (Molecular Devices). […]"}, "Akt, eNOS and 42/44": {"test_system": "Akt, eNOS and 42/44", "test": "Phosphorylation of Tie2 downstream signaling proteins in HUVEC (immunoblot)", "assay_type": "cell-based, human", "procedure": "To see whether antibody 10D6 induces the activation of the downstream signaling of a Tie2 receptor as well as the activation of the Tie2 receptor itself, the phosphorylation degrees of proteins participating in the downstream signaling when Ang2 alone or Ang2 and antibody 10D6 was treated were tested using immune blotting.\nSpecifically, HUVEC (ATCC) cells (1×10^6) were cultured in a 6-well culture dish using EGM-2 (Lonza) media at 37° C. and when they reached 80˜90% confluency, the media were replaced with serum-free media (Lonza) and cultured at 37° C. for 6 to 16 hours. The dish was washed once with PBS, and the cultured cells were treated with a mixture prepared by mixing 60 nM of the Ang2 antibody (10D6) with 40 nM of Ang2 protein (R&D systems) and letting them stand for 20 min. and further cultured for 30 min. For comparison, groups in which Ang1 (R&D systems) 4 nM, Ang2 (R&D systems) 40 nM, and Ang2 (R&D systems) 40 nM+anti-Ang2 antibody (Regeneron) 60 nM were treated respectively were prepared.\nThe cells were washed using PBS, treated with a lysis buffer (Roche), collected to a tube to be dissolved at 4° C. for 30 min. and then, centrifuged at 13,000 rpm for 15 min. to measure a supernatant. A sample buffer (Invitrogen) mixed with a reducing agent was added to 25 ug of a cell lysate, which was boiled at 95° C. for 5 min., and then, applied to NuPAGE Novex 4-12% Bis-Tris gel (Invitrogen) and transferred onto Nitrocellulose membrane (Invitrogen).\nTo see the presence of the phosphorylation of Akt, eNOS and 42/44 involved in the downstream signaling, the blots were blocked with PBST mixed with 3% (v/v) skim milk (Sigma) for 30 min. and then treated with an anti pAkt antibody, anti p-eNOS antibody, and anti p-42/44 antibody (all of them; cell signaling). The blots were reacted in a stripping buffer (Thermo) for 15 min. and then blocked again to identify Akt, eNOS, and 42/44 using an anti Akt antibody, anti eNOS antibody, and anti 42/44 antibody (all of them; cell signaling)."}, "Tie2 receptor": {"test_system": "Tie2 receptor", "test": "Tie2 phosphorylation in HUVEC cells (immunoprecipitation/immunoblot)", "assay_type": "cell-based, human", "procedure": "As Ang2 induces a change in vascular endothelial cells by binding to a Tie-2 receptor expressed in the vascular endothelial cells to induce the phosphorylation of the receptor and activate it, a test for analyzing an influence of the anti-Ang2 antibody on Tie2 phosphorylation was conducted using a cell-based assay.\nFor this, HUVEC (ATCC) cells (1×10^6) were cultured in a 100 mm culture dish using EGM-2 (Lonza) media at 37° C. and when they reached 80˜90% confluency, the media were replaced with serum-free media and cultured at 37° C. for 6 to 16 hours. The dish was washed once with PBS and after the replacement with […] sodium orthovanadate (Sigma)-mixed serum free media (Lonza), they were further cultured for 10 min. […]\nIn addition, referring to the above method, when 60 nM of antibody 10D6 and Ang2 were treated, the phosphorylation level of Tie2 was measured and compared with the case of treating a control antibody (anti-Ang2 antibody (Regeneron) which has MOA of inhibiting binding between Ang2 and Tie2; represented as ‘RG antibody’). After treating with the antibody (10D6 or RG), the blot band density of pTyr and Tie2 was measured using ImageJ software and pTyr/Tie2 ratio was calculated."}},
  "data": [
    {"molecule": "10D6: mouse anti-Ang2 monoclonal antibody from hybridoma KCLRF-BP-00295; heavy chain variable region SEQ ID NO: 7, light chain variable region SEQ ID NO: 9 (antibody, V domains shown, Synthetic (Heavy chain variable region of an anti-Ang2 antibody); Synthetic (Light chain variable region of anti-Ang2 antibody)) VH: DVQLQESGPGLVKPSQSLSLTCTVTGYSITSDYAWNWIRQFPGNKLEWMGYINYSGNTDYNPSLKSRSSITRDTSKNQFFLQLNSVTTGDTATYYCARGNFEGAMDYWGQGTSVTVSS VL: SIVMTQTPKFLLVSAGDRVTITCKASQSVSNDVAWYQQKPGQSPKLLIYYASNRYPGVPDRFTGSGYGTDFTFTISTVQAEDLAVYFCQQDYSSPWTFGGGTKLEIK", "values": [
      {"measurement": "binding affinity (%) with mutant Ang2 against the binding affinity with the native Ang2, 449", "setting": "mutant Ang2 protein", "result": 97.86, "unit": "%"},
      {"measurement": "downstream signaling (phosphorylation of Akt, eNOS, 42/44) compared to Ang2 sole-treatment and Ang2 + RG antibody", "setting": "Akt, eNOS and 42/44; 60 nM 10D6 + 40 nM Ang2, or Ang1 4 nM alone, 30 min", "result": "strongly induced"},
      {"measurement": "downstream signaling effects relative to Ang1 sole-treatment group", "setting": "Akt, eNOS and 42/44; 60 nM 10D6 + 40 nM Ang2 vs Ang1 4 nM", "result": "at least equal to those in the Ang1 sole-treatment group"},
      {"measurement": "Tie2 phosphorylation effect, fold higher than control antibody RG", "setting": "Tie2 receptor; 60 nM antibody and Ang2", "result": "about 8.6 fold"},
      {"measurement": "phosphorylation of Tie2 compared to Ang2 treated alone", "setting": "Tie2 receptor; antibody 600~0.06 nM with 40 nM Ang2, every antibody concentration tested", "result": "more strongly induced"}
    ]}
  ]
}
